Consider one molecule from publication doi:10.1101/2025.07.31.667872 (bioRxiv, 2025).

What all share (conditions): both partners purified
The target in experiment [1] is T1, RPN13 Pru (1–150), oxidized (UniProt Q16186 1-150, oxidized with 0.05 % H2O2; the oxidized residues are not given).
T1 construct: RPN13 Pru domain, residues 1-150; also called oxi-RPN13^Pru; not shown: His6, N-terminal, cleaved
The experiment is described as follows: ITC; RPN2 (940–953) in the syringe (205.7 or 160 μM), RPN13 Pru in the cell (20.57 or 16 μM); 25 °C, non-reducing buffer: 20 mM sodium phosphate, 50 mM NaCl, pH 6.0; one-site fit.

For experiment [2], the target named is T2, oxi-RPN13^Pru following incubation with 3-fold molar excess TXNL1^Trx (UniProt Q16186 1-150, oxidized with 0.05 % H2O2, then treated with TXNL1 Trx).
T2 construct: RPN13 Pru domain, residues 1-150; source: E. coli BL21(DE3) pLysS, purified; not shown: His6, N-terminal, cleaved
Described as above.

The target in experiment [3] is T3, RPN13 Pru (1–150), reduced (UniProt Q16186 1-150).
T3 construct: Kept in reducing ITC buffer (10 mM βME); also called redu RPN13^Pru; RPN13 (1–150); source: E. coli BL21(DE3) pLysS, purified (Talon resin, PreScission elution, Superdex 75); not shown: His6, N-terminal, cleaved
The experiment is described as follows: ITC; RPN2 (940–953) in the syringe (156 μM), RPN13 Pru in the cell (15.6 μM); 25 °C, reducing buffer: 20 mM sodium phosphate, 50 mM NaCl, 10 mM βME, pH 6.0; one-site fit.

T1 sequence (Q16186 1-150): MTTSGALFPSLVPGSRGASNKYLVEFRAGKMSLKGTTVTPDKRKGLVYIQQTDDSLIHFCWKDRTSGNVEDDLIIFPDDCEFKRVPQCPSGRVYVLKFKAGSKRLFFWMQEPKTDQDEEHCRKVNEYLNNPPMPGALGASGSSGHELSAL
T3 sequence (Q16186 1-150): as above
T2 sequence (Q16186 1-150): as above

B1: RPN2 peptide (940–953) (peptide, UniProt Q99460 940-953, looked up)
chain: QEPEPPEPFEYIDD
notes: The construct has a PreScission site after GST, but the methods tell only of elution as the GST fusion; ITC and NMR speak of the RPN2 peptide; also called RPN2 (940–953); RPN2^940–953
With B1, the figures for the Kd in experiment [1], in experiment [2] and in experiment [3] were 40 ± 15.3 nM, 18.9 ± 5.7 nM and 12.4 ± 5.29 nM, respectively.
